# Read-outs that look alike come from different tables or passages of the source.
# T1: His-cynomolgus monkey LIGHT (cynomolgus monkey)
# T1 construct: also called His-cynoLIGHT
# T1 chain: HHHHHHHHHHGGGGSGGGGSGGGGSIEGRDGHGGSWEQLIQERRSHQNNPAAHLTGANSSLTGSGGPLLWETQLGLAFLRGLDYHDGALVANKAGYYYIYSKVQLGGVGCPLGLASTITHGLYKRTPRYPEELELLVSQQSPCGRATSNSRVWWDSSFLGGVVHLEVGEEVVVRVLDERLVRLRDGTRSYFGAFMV
# T2: His-human LIGHT (human)
# T2 chain: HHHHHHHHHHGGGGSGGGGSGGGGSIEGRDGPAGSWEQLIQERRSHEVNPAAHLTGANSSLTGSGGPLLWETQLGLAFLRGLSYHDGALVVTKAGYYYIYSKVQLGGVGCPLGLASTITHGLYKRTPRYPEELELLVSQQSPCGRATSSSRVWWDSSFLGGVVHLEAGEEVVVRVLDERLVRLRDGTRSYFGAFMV
# What was measured:
# [1] = target: T3, LIGHT on the surface of HEK293-LIGHT stable cells (human, UniProt O43557 1-240); assay: cell-based or functional assay
# [2] = target: T1, His-cynomolgus monkey LIGHT; assay: ELISA, His-cynoLIGHT coated
# His-human LIGHT [3] = target: T2, His-human LIGHT; assay: cell-based or functional assay
# His-human LIGHT [4] = target: T2, His-human LIGHT; assay: ELISA, His-huLIGHT coated
# hFc-human LIGHT [5] = target: T4, hFc-human LIGHT (human); assay: competition ELISA, LTβR-His coated, hFc-huLIGHT added
# T4 construct: also called hFc-huLIGHT
# His-human LIGHT [6] = target: T2, His-human LIGHT; assay: cell-based or functional assay
# His-human LIGHT [7] = target: T2, His-human LIGHT; assay: cell-based or functional assay
# hFc-human LIGHT [8] = target: T4, hFc-human LIGHT; assay: competition ELISA, LTβR-His coated, hFc-huLIGHT added; remark: listed apart in the source
# [9] = target: T3, LIGHT on the surface of HEK293-LIGHT …; assay: cell-based or functional assay; remark: listed apart in the source
# His-human LIGHT [10] = target: T2, His-human LIGHT; assay: ELISA, His-huLIGHT coated
# His-human LIGHT [11] = target: T2, His-human LIGHT; assay: cell-based or functional assay
# His-human LIGHT [12] = target: T2, His-human LIGHT; assay: cell-based or functional assay
# His-human LIGHT [13] = target: T2, His-human LIGHT; assay: cell-based or functional assay
# His-human LIGHT [14] = target: T2, His-human LIGHT; assay: SPR, Biacore 8K, antibody on CM5 chip, human LIGHT
# His-human LIGHT [15] = target: T2, His-human LIGHT; assay: ELISA, His-huLIGHT coated
# hFc-human LIGHT [16] = target: T4, hFc-human LIGHT; assay: competition ELISA, LTβR-His coated, hFc-huLIGHT added; remark: listed apart in the source
"IC50, LTβR NF-κB luciferase reporter, HEK293-LIGHT cells [1] [µg/mL]",EC50 [2] [nM],"IC50, LTβR NF-κB luciferase reporter, free LIGHT (His-human LIGHT [3]) [µg/mL]",EC50 (His-human LIGHT [4]) [µg/mL],IC50 (hFc-human LIGHT [5]) [nM],"IC50, HVEM NF-κB luciferase reporter, free LIGHT (His-human LIGHT [6]) [µg/mL]","IC50, LTβR NF-κB luciferase reporter, free LIGHT (His-human LIGHT [7]) [nM]",IC50 (hFc-human LIGHT [8]) [nM],"IC50, LTβR NF-κB luciferase reporter, HEK293-LIGHT cells [9] [nM]",EC50 (His-human LIGHT [10]) [nM],"IC50, LIGHT induced MMP-9 production in BEAS-2B bronchial epithelial cells (His-human LIGHT [11]) [µg/mL]","IC50, proliferation of CD3+ T cells stimulated by plate-bound anti-CD3 and His-huLIGHT (CellTiter Glo) (His-human LIGHT [12]) [µg/mL]","IC50, HVEM NF-κB luciferase reporter, free LIGHT (His-human LIGHT [13]) [nM]",Kd (His-human LIGHT [14]) [nM],koff (His-human LIGHT [14]) [s⁻¹],kon (His-human LIGHT [14]) [M⁻¹ s⁻¹],EC50 (His-human LIGHT [15]) [nM],IC50 (hFc-human LIGHT [16]) [nM],Binder
5.39,0.0468,0.269,0.0662,0.0754,0.118,–,–,–,–,–,–,–,–,–,–,–,–,"hum_LT-m37-1 (antibody, human IgG4, V domains shown, humanized from LT-m37) VH: QVQLVQSGAEVKKPGASVKVSCKASGYSFTGYFINWVRQAPGQSLEWIGRIYPYNVNTFYNQNFKGRATLTADKSTSTAYMELSSLRSEDTAVYYCGRGTHYYGSSGAMDYWGQGTLVTVSS VL: EIVLTQSPATLSVSPGERATLSCKASQNVGTAVAWYQQKPGQSPRLLIYSASNRYTGIPARFSGSGSGTEFTLTISSLQSEDFAVYFCQQYSSYPYTFGGGTKVEIK"
3.54,0.0517,0.293,0.081,0.0598,0.0918,–,–,–,–,–,–,–,–,–,–,–,–,"hum_LT-m37-2 (antibody, human IgG4, V domains shown, humanized from LT-m37) VH: QVQLVQSGAEVKKPGASVKVSCKASGYSFTGYFINWVRQAPGQGLEWIGRIYPYNVNTFYNQNFKGRATLTADKSTSTAYMELSSLRSEDTAVYYCGRGTHYYGSSGAMDYWGQGTLVTVSS VL: EIVLTQSPATLSVSPGERATLSCKASQNVGTAVAWYQQKPGQSPRLLIYSASNRYTGIPARFSGSGSGTEFTLTISSLQSEDFAVYFCQQYSSYPYTFGGGTKVEIK"
–,0.104,–,–,–,–,0.227,0.867,0.867,0.0422,0.358,0.311,–,–,–,–,–,–,"hum_LT-m37-13 (antibody, human IgG4, V domains shown, humanized from LT-m37) VH: QVQLVQSGAEVKKPGASVKVSCKASGYSFTGYFINWVRQAPGQGLEWIGRIYPYNVDTFYNQNFKGRVTMTADKSTSTAYMELSSLRSEDTAVYYCGRGTHYYGSSGAMDYWGQGTLVTVSS VL: EIVLTQSPATLSVSPGERATLSCKASQNVGTAVAWYQQKPGQSPRLLIYSASNRYTGIPARFSGSGSGTEFTLTISSLQSEDFAVYFCQQYSSYPYTFGGGTKVEIK"
–,0.104,–,–,–,–,0.182,1.02,1.86,0.0464,0.352,0.332,0.161,–,–,–,–,–,"hum_LT-m37-14 (antibody, human IgG4, V domains shown, humanized from LT-m37) VH: QVQLVQSGAEVKKPGASVKVSCKASGYSFTGYFINWVRQAPGQSLEWIGRIYPYNVDTFYNQNFKGRATLTADKSTSTAYMELSSLRSEDTAVYYCGRGTHYYGSSGAMDYWGQGTLVTVSS VL: EIVLTQSPATLSVSPGERATLSCKASQNVGTAVAWYQQKPGQSPRLLIYSASNRYTGIPARFSGSGSGTEFTLTISSLQSEDFAVYYCQQYSSYPYTFGGGTKVEIK"
–,0.13,–,–,–,–,0.219,0.844,1.28,0.0658,0.197,0.195,0.12,–,–,–,–,–,"hum_LT-m37-15 (antibody, human IgG4, V domains shown, humanized from LT-m37) VH: QVQLVQSGAEVKKPGASVKVSCKASGYSFTGYFINWVRQAPGQGLEWIGRIYPYNVDTFYNQNFKGRATMTADKSTSTAYMELSSLRSEDTAVYYCGRGTHYYGSSGAMDYWGQGTLVTVSS VL: EIVLTQSPATLSVSPGERATLSCKASQNVGTAVAWYQQKPGQSPRLLIYSASNRYTGIPARFSGSGSGTEFTLTISSLQSEDFAVYYCQQYSSYPYTFGGGTKVEIK"
1.86,0.0588,0.224,0.0939,0.0753,0.0518,–,–,–,–,–,–,–,0.0408,5.25e-05,1.29e+06,–,–,"hum_LT-m37-6 (antibody, human IgG4, V domains shown, humanized from LT-m37) VH: QVQLVQSGAEVKKPGASVKVSCKASGYSFTGYFINWVRQAPGQGLEWIGRIYPYNVNTFYNQNFKGRATLTADKSTSTAYMELSSLRSEDTAVYYCGRGTHYYGSSGAMDYWGQGTLVTVSS VL: EIVMTQSPATLSVSPGERATLSCKASQNVGTAVAWYQQKPGQSPRLLIYSASNRYTGIPARFSGSGSGTEFTLTISSLQSEDFAVYFCQQYSSYPYTFGGGTKVEIK"
2.22,0.0513,0.16,0.0837,0.0771,0.062,–,–,–,–,–,–,–,0.0575,6.34e-05,1.1e+06,–,–,"hum_LT-m37-5 (antibody, human IgG4, V domains shown, humanized from LT-m37) VH: QVQLVQSGAEVKKPGASVKVSCKASGYSFTGYFINWVRQAPGQSLEWIGRIYPYNVNTFYNQNFKGRATLTADKSTSTAYMELSSLRSEDTAVYYCGRGTHYYGSSGAMDYWGQGTLVTVSS VL: EIVMTQSPATLSVSPGERATLSCKASQNVGTAVAWYQQKPGQSPRLLIYSASNRYTGIPARFSGSGSGTEFTLTISSLQSEDFAVYFCQQYSSYPYTFGGGTKVEIK"
–,0.104,–,–,–,–,0.158,0.808,2.55,0.0369,0.305,0.385,0.179,–,–,–,–,–,"hum_LT-m37-16 (antibody, human IgG4, V domains shown, humanized from LT-m37) VH: QVQLVQSGAEVKKPGASVKVSCKASGYSFTGYFINWVRQAPGQGLEWIGRIYPYNVDTFYNQNFKGRVTMTADKSTSTAYMELSSLRSEDTAVYYCGRGTHYYGSSGAMDYWGQGTLVTVSS VL: EIVLTQSPATLSVSPGERATLSCKASQNVGTAVAWYQQKPGQSPRLLIYSASNRYTGIPARFSGSGSGTEFTLTISSLQSEDFAVYYCQQYSSYPYTFGGGTKVEIK"
2.56,0.0527,0.129,0.0859,0.0748,0.0677,–,–,–,–,–,–,–,0.241,7.1e-05,295000,–,–,"hum_LT-m37-4 (antibody, human IgG4, V domains shown, humanized from LT-m37) VH: QVQLVQSGAEVKKPGASVKVSCKASGYSFTGYFINWVRQAPGQGLEWIGRIYPYNVNTFYNQNFKGRVTMTADKSTSTAYMELSSLRSEDTAVYYCGRGTHYYGSSGAMDYWGQGTLVTVSS VL: EIVLTQSPATLSVSPGERATLSCKASQNVGTAVAWYQQKPGQSPRLLIYSASNRYTGIPARFSGSGSGTEFTLTISSLQSEDFAVYFCQQYSSYPYTFGGGTKVEIK"
–,–,–,–,–,–,–,–,–,–,–,–,–,–,–,–,0.00617,0.208,"hum_LT-m58-4 (antibody, human IgG4, V domains shown, humanized from LT-m58) VH: QVQLVQSGAEVKKPGASVKVSCKASGYTFIDHIMNWVRKAPGQGLEWMGRIYPVSGETNYNQKFMGRATFTVDRSTSTVYMELSSLRSEDTAVYYCGRGSYYWNAMDYWGQGTLVTVSS VL: EIVMTQSPATLSVSPGERATLSCKASQSVDFDGESYMNWYQQKPGQPPRLLIYSASNLESGIPARFSGSGSGTEFTLTISSLQSEDFAVYYCQQSIEDPWTFGQGTKLEIK"
–,–,–,–,–,–,–,–,–,–,–,–,–,–,–,–,0.0112,0.169,"hum_LT-m58-3 (antibody, human IgG4, V domains shown, humanized from LT-m58) VH: QVQLVQSGAEVKKPGASVKVSCKASGYTFIDHIMNWVRKAPGQGLEWMGRIYPVSGETNYNQKFMGRATFTVDRSTSTVYMELSSLRSEDTAVYYCGRGSYYWNAMDYWGQGTLVTVSS VL: DIVMTQSPDSLAVSLGERATINCKASQSVDFDGDSYMNWYQQKPGQPPKLLIYSASNLESGVPDRFSGSGSGTDFTLTISSLQAEDVAVYYCQQSIEDPWTFGQGTKVEIK"

# — patent EP4596580A1 (Staidson (Beijing) Biopharmaceuticals Co., Ltd., dated 2025)
